The values below come from publication PMC5890618, “Structural and Functional Insights into Bacillus subtilis Sigma Factor Inhibitor, CsfB” (Structure(London, England:1993), 2018).

To fix the notation:
B1: CsfB^A48E (full-length CsfB variant A48E, residues 1-64) (natural protein, Bacillus subtilis, UniProt P37534 1-64, looked up)
chain: MDETVKLNHTCVICDQEKNRGIHLYTKFICLDCERKVISTSTSDPDYEFYVKKLKSIHTPPLYS
notes: Anti-sigma factor CsfB (also called Gin), Bacillus subtilis strain PY79, full length, residues 1-64, with A48E at the known cleavage point; Made by site-directed mutagenesis of pNIC28-CsfB; The His-tag was removed with TEV 'when required'; 15N-labelled for the NMR titrations; also called Gin A48E; source: E. coli BL21(DE3)pLysS, purified (HisTrap Ni Sepharose, Superdex75 SEC)
B3: σ^E (truncated sigma factor E, residues 17-239, lacking the N-terminal membrane-anchored pro-sequence) (domain or fragment, Bacillus subtilis, UniProt P06222 17-239, looked up)
chain: MKLGLKSDEVYYIGGSEALPPPLSKDEEQVLLMKLPNGDQAARAILIERNLRLVVYIARKFENTGINIEDLISIGTIGLIKAVNTFNPEKKIKLATYASRCIENEILMYLRRNNKIRSEVSFDEPLNIDWDGNELLLSDVLGTDDDIITKDIEANVDKKLLKKALEQLNEREKQIMELRFGLVGEEEKTQKDVADMMGISQSYISRLEKRIIKRLRKEFNKMV
notes: Cloned into pET28-TxrA; The tag was removed with TEV 'when required'; also called sigma E; SigE; source: E. coli BL21(DE3)pLysS, purified (HisTrap Ni Sepharose, Superdex75 SEC)

The target of data set [1] is B3. The data set is described as follows: ITC; cell 60 uM CsfB^A48E, syringe 395 uM σ^E; 25°C; 19 injections of 2 ul; 50 mM HEPES pH 7.5, 150 mM KCl, 0.5 mM TCEP; fitted assuming 1:1 stoichiometry. Particulars: both partners purified.
Data set [2] deals with T1, σ^G (recombinant full-length sigma factor G, residues 1-260) (Bacillus subtilis, UniProt P19940 1-260).
T1 construct: Cloned into pET-46; also called sigma G; SigG; source: E. coli BL21(DE3)pLysS, purified (HisTrap Ni Sepharose, Superdex75 SEC)
T1 sequence (looked up): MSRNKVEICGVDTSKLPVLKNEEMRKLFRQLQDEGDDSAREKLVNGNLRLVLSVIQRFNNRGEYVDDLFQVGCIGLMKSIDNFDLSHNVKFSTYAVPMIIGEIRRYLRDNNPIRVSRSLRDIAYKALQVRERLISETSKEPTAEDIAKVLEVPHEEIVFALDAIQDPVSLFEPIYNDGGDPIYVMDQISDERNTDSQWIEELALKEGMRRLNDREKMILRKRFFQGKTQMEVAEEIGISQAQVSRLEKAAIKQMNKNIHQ
The data set is described as follows: NMR titration; 15N-labelled CsfB (100 uM for CsfB^A48E) titrated with unlabelled sigma factor up to 1:2 molar equivalents; 1H-15N SOFAST-HMQC; 298 K; 50 mM HEPES pH 7.5, 150 mM KCl, 0.5 mM TCEP. Particulars: both partners purified.

Data set [3] deals with the molecule itself. The experiment in a line: NMR solution structure; CsfB 1-48 dimer, >500 uM, 303 K, 50 mM HEPES pH 7.5, 150 mM KCl, 0.5 mM TCEP; intermolecular NOEs from 12C-filtered, 13C-edited NOESY on a mixed labelled/unlabelled dimer; ARIA2.3 with C2 symmetry.
For data set [4], the target named is B1. The data set is described as follows: ITC; cell 60 uM CsfB^A48E, syringe 395 uM σ^E; 25°C; 19 injections of 2 ul; 50 mM HEPES pH 7.5, 150 mM KCl, 0.5 mM TCEP; fitted assuming 1:1 stoichiometry. Particulars: both partners purified. Background: In ITC the heat of successive injections is recorded.

For B1, the dissociation constant (Kd) in data set [1] worked out at 12.5 ± 2.4 nM. Also, the binding result in data set [2] is recorded as “binds”.

B2: CsfB^1-48 (truncated wild-type CsfB, stable degradation product, residues 1-48) (domain or fragment, Bacillus subtilis, UniProt P37534 1-48, looked up)
chain: MDETVKLNHTCVICDQEKNRGIHLYTKFICLDCERKVISTSTSDPDYA
notes: Produced as N-terminally histidine-tagged full-length CsfB that degraded to 1-48; Symmetrical homodimer by NMR; also called cleaved CsfB; truncated variant; source: E. coli BL21(DE3)pLysS, purified (HisTrap Ni Sepharose, Superdex75 SEC); arises by degradation of recombinant full-length CsfB
For B2, the “stoichiometry N” value in data set [3] amounted to 2.

As for B3, in data set [4], the dH was -8.04 ± 0.04 kcal/mol and the “stoichiometry N” value was determined as 1.01 sites.

A word on the Kd: it is the free concentration of one partner at which half of the binding sites on the other are occupied at equilibrium, for simple one-to-one binding. One may read the stoichiometry N as a count of units in the complex or per binding partner.
